Tests used:
[1] = biological target: T1, native soluble IL-6R in human plasma (human, UniProt P08887); assay: ELISA 3, periplasmic extract; competitor BN-12; human plasma
Method: (§1) In this ELISA, plasma was used as a source of native soluble IL-6R. By this assay, we aimed to confirm the alphascreen results and to get a view on the cross-reactivity of the clones towards cynomolgous IL-6R. Human plasma (ELISA 1 and ELISA 3) or cynomolgous plasma (ELISA 2) were pre-incubated with a dilution of the periplasmic extract of the clones together with human IL-6 (50 ng/mL). Subsequently, plasma soluble IL-6R was captured on a B-N12 coated plate and bound IL-6 was detected using anti-IL-6 antibody BAF206 and streptavidin-HRP (ELISA 1 and ELISA 2). The ELISA signal dropped when the Nanobody clone could compete with IL-6 for binding to soluble IL-6R. ELISA 3 was a parallel ELISA in which the detection antibody was replaced by anti-IL-6R antibody BAF227 to exclude false positive competitors, which actually compete with B-N12 (e.g. family 2). Depicted in Table C-5 is the ratio of the OD450 value of the test sample versus the blank OD450 (mock sample). Clones were ordered based on ELISA 1 data.

[2] = biological target: soluble IL-6R in cynomolgous plasma (cynomolgus monkey, UniProt A0A2K5WN54); assay: ELISA 2, periplasmic extract; competitor IL-6; cyno plasma
Method: as §1

[3] = biological target: T1, native soluble IL-6R in human plasma; assay: ELISA 1, periplasmic extract; competitor IL-6; human plasma
Method: as §1

IL-6R on TF-1 cells = IL-6R on TF-1 cells (Homo sapiens (Human), UniProt P08887); assay: cell-based or functional assay

| OD450 ratio sample/blank [1] | OD450 ratio sample/blank [2] | OD450 ratio sample/blank [3] | IC50, IL-6-dependent proliferation of TF-1 cells (3H-thymidine) (IL-6R on TF-1 cells) [nM] | Binder |
| --- | --- | --- | --- | --- |
| 1.01 | 0.883 | 0.523 | – | IL6RPMP107G10 (VHH) VHH: EVQLVESGGGLVQAGGSLRLSCAASGSIENINAMGWYRQAPGKQRDFLAIITDGSKTLYADSVKGRFTISNDNAKNTVYLQMNSLKPEDTAVYYCNAYQAGWGDYWGQGTQVTVSS |
| 1.02 | 1.19 | 0.592 | – | IL6RPMP107E4 (VHH) VHH: EVQLVESGGGLVQAGGSLRLSCAASGSIDRINAMGWYRQAPGKQRDFLAVITDGDKTLYADSVKGRFTISNDNAKNTVYLQMNSLKPEDTAVYYCNAYQAGWGDYWGQGTQVTVSS |
| – | – | – | 0.53 | Reference IgG (antibody, V domains shown) VH: QVQLQESGPGLVRPSQTLSLTCTVSGYSITSDHAWSWVRQPPGRGLEWIGYISYSGITTYNPSLKSRVTMLRDTSKNQFSLRLSSVTAADTAVYYCARSLARTTAMDYWGQGSLVTVSS VL: DIQMTQSPSSLSASVGDRVTITCRASQDISSYLNWYQQKPGKAPKLLIYYTSRLHSGVPSRFSGSGSGTDFTFTISSLQPEDIATYYCQQGNTLPYTFGQGTKVEIKR |
| 0.997 | 0.202 | 1.71 | 116 | IL6RPMP100G11 (VHH) VHH: EVQLVESGGGLVQAGGSLRLSCAASGRGFSPYTMGWFRQAPGKERVFVAGISWSTGIAHYTDSVKGRFTISRDNAKNTGSLQMNSLKPEDTAVYYCAVVQTTKGNYDYWGQGTQVTVSS |
| 0.947 | 0.0273 | 0.0703 | – | IL6RPMP101F6 (VHH) VHH: EVQLVESGGGLVQAGGSLRLSCAASGSIFSIKAMGWYRQAPGKQRELVARITSGGSTYYADSVKGRFTISRDNAKNTVYLQMNSLKPEDTAVFYCNAIVTDSDYDLGNDYWGQGTQVTVSS |
| 0.468 | 0.0538 | 0.227 | – | IL6RPMP101G11 (VHH) VHH: EVQLVESGGGLVQPGGSLRLSCAASASGFTLDYYAIGWFRQAPGKEREGVSCISSTDGSTYYADSVKGRFTISRDNAKNTVYLQMNSLNPEDTGVYTCAAVLTTAQAMGVPTRSYEYDYWGQGTQVTVSS |
| 1.02 | 0.187 | 0.567 | – | IL6RPMP120C1 (VHH) VHH: EVQLVESGGGLVQAGGSLSLSCATSGRTISDDTMAWFRQAPGKEREFVATITFSGARTHYSDSVRDRFTISRDNAKNTVYLQMNSLKSEDTAVYYCAASTKYYSSTYNYIHPAFYDIWGQGTQVTVSS |
| 1.02 | 0.204 | 0.645 | – | IL6RPMP120B2 (VHH) VHH: EVQLVESGGGLVQAGGSLSLSCATSGRTISDDTMAWFRQAPGKEREFVATITFSGARTHYSDSVRDRFTISRDNAKNTVYLQMNSLKSEDTAVYYCAASTKYYSSTYNYIHPAFYDIWGQGTQVTVSS |
| 1.01 | 0.198 | 0.598 | – | IL6RPMP120A1 (VHH) VHH: EVQLVESGGGLVQAGGSLSLSCATSGRTISDDTMAWFRQAPGKEREFVATITFSGARTHYSDSVRDRFTISRDNAKNTVYLQMNSLKSEDTAVYYCAASTKYYSSTYNYIHPAFYDIWGQGTQVTVSS |
| 0.993 | 0.158 | 0.659 | – | IL6RPMP120D2 (VHH) VHH: EVQLVESGGGLVQAGGSLSLSCATSGRTISDDTMAWFRQAPGKEREFVATITFSGARTHYSDSVRDRFTISRDNAKNTVYLQMNSLKSEDTAVYYCAASTKYYSSTYNYIHPAFYDIWGQGTQVTVSS |
| 0.972 | 1.05 | 0.402 | – | IL6RPMP101B3 (VHH) VHH: EVQLVESGGGLVQAGGSLRLSCAASGSIFRINAMGWYRQAPGKQRELVAAAISGGSTNYADFVKGRFTISRDNAKNTVYLQMNSLKPEDTAVYYCNALVVSHNYSDYVPFPDDYWGQGTQVTVSS |
| 0.975 | 1.04 | 0.597 | – | IL6RPMP101G2 (VHH) VHH: EVQLVESGGGLVQAGGSLRLSCAASGSIFRINAMGWYRQAPGKQRELVAAAISGGSTNYADFVKGRFTISRDNAKNTVYLQMNSLKPEDTAVYYCNALVVSHNYSDYVPFPDDYWGQGTQVTVSS |
| 1.01 | 1.19 | 0.557 | – | IL6RPMP106F4 (VHH) VHH: EVQLVESGGGLVQAGGSLRLSCAASGSIFRINAMGWYRQAPGKQRELVAAAISGGSTNYADFVKGRFTISRDNAKNTVYLQMNSLKPGDTAVYYCNALVVSHNYSDYVPFPDDYWGQGTQVTVSS |
| 1 | 1 | 0.672 | – | IL6RPMP106F7 (VHH) VHH: EVQLVESEGGLVQAGGSLRLSCAASGSIFRINAMGWYRQAPGKQRELVAAAISGGSTNYADFVKGRFTISRDNAKNTVYLQMNSLKPEDTAVYYCNALVVSHNYSDYVPFPDDYWGQGTQVTVSS |
| 1.01 | 0.995 | 0.457 | – | IL6RPMP105D3 (VHH) VHH: EVQLEESGGGLVQAGGSLRLSCAASGSIFRINAMGWYRQAPGKQRELVAAAISGGSTNYADFVKGRFTISRDNAKNTVYLQMNSLKPEDTAVYYCNALVVSHNYSDYVPFPDDYWGQGTQVTVSS |
| 0.996 | 1.01 | 0.577 | – | IL6RPMP105C2 (VHH) VHH: EVQLVESGGGLVQAGGSLRLSCAASGSIFRINAMGWYRQAPGEQRELVAAAISGGSTNYADFVKGRFTISRDNAKNTVYLQMNSLKPEDTAVYYCNALVVSHNYSDYVPFPDDYWGQGTQVTVSS |
| 1.06 | 0.904 | 0.438 | – | IL6RPMP107C3 (VHH) VHH: EVQLVESGGGLVQAGGSLNLSCNASGDIGSINAMGWHRQAPGQQREWVAVITDTDSTIYPDSVKGRFAISRDGAKNTVHLRMSSLKPEDTAVYYCNAYQAGWGDYWGQGTQVTVSS |
| 0.923 | 0.0331 | 0.498 | – | IL6RPMP120F4 (VHH) VHH: EVQLVESGGGLVQTGGSLRLSCAVSGRTDSTASVGWFRQAPGKQREWVVGISSGGSTHYADSVKGRFISSQDDAKNTVYLQMNSLKPEDTAIYYCAIAHGSSTYNYWGQGTQVTVSS |
| 0.989 | 0.521 | 0.508 | – | IL6RPMP101A1 (VHH) VHH: EVQLVESGGGTVQAGGSLKLSCAASGRTFTNYAMGWFRQAPGKEREFVAAIAYATHFADSVKGRFTISRGNAKNTVYLQMNSLKPEDTAVYYCAADLSLSKMVSKITSDMDYWGKGTLVTVSS |
| 0.943 | 0.859 | 2.12 | – | IL6RPMP103A5 (VHH) VHH: EVQLVESGGGLVQAGDSLRLSCVASGLPFSTLHMGWFRQAPGKEHESVSAISSDGGSEYYAGSVKGRFTISRDNAKNTVYLQMNSLKPEDTAVYYCAADPRRIGANIKYSDYWGQGTQVTVSS |
| 0.98 | 0.0821 | 0.355 | – | IL6RPMP103D7 (VHH) VHH: EVQLVESGGGLVEAGGSLRLSCAAAGRTLSSYSMAWFRQAPGKEREFVAIIRGNPSRTYHSDSVKGRFTASRDNAKNTVYLQMNRLEPEDTAVYYCAADPPPFASDYSAPQSYDYWGQGTQVTVSS |
| 0.972 | 0.811 | 0.569 | – | IL6RPMP101F2 (VHH) VHH: EVQLVESGGGLVQAGGSLRLSCAASGFAFDDYAIGWFRQAPGKEREGVSSISSSNGNTYYADSVRGRFTISSDNAKNTVYLQMNSLKPEDTGVYYCAAIWGIFFNEKMPVGAYDYWGQGTQVTVSS |
| 1.02 | 0.679 | 0.627 | – | IL6RPMP105H10 (VHH) VHH: EVQMVESGGGLVQAGGSLRLSCAASGFAFDDYAIGWFRQAPGKEREGVSSISSSNGNTYYADSVRGRFTISSDNAKNTVYLQMNSLKPEDAGVYYCAAIWGIFFNEKMPVGAYDYWGQGTQVTVSS |
| 0.975 | 0.801 | 0.58 | – | IL6RPMP101C3 (VHH) VHH: EVQLVESGGGLVRAGGSLRLSCAASGFAFDDYAIGWFRQAPGKEREGVSSISSSNGNTYYADSVRGRFTISSDNAKNTVYLQMNSLKPEDTGVYYCAAIWGIFFNEKMPVGAYDYWGQGTQVTVSS |
